From patent US9889181B2, “Bacteriophage lysin and antibiotic combinations against gram positive bacteria” (priority 2012, dated 2018)
Like-named read-outs stand apart in the source and are kept apart here.

Assays:
Escherichia coli = assay: MIC, broth microdilution (CLSI M07-A9)
Lactococcus spp. = assay: MIC, human gut bacteria; assay type: cell-based; conditions: N 3
[1] = test system: MRSA strain MW2 (also strains 738, 832); assay type: in vivo, BALB/c mice; conditions: 10^9 CFU, dosing at 2 hours, PlySs2 5.25 mg/kg
Streptococcus pneumoniae = assay: MIC, broth microdilution (CLSI M07-A9); conditions: Streptococcus pneumoniae (26)
MRSA = assay: MIC, broth microdilution (CLSI M07-A9)
MRSA S. aureus strains = assay: Dual agent MIC assay (PlySs2 and daptomycin); assay type: cell-based, Staphylococcus aureus
[2] = test system: Staphylococcus lugdiensis; assay: MIC, broth microdilution (CLSI M07-A9); conditions: Staphylococcus lugdiensis (10)
Pseudomonas aeruginosa = assay: MIC, broth microdilution (CLSI M07-A9)
MRSA strains = assay: Time kill assay, PlySs2 and antibiotic alone or in combination; assay type: cell-based, Staphylococcus aureus; conditions: ½ MIC of PlySs2 or ¼ MIC of vancomycin alone
[3] = test system: 20 different MSSA and 42 MRSA strains; assay: Time-kill assay, single agents at 1×MIC; assay type: cell-based, Staphylococcus aureus
Experimental: In order to more fully evaluate PlySs2's applicability to clinical Staphylococcal infections, time kill studies were undertaken against numerous Staphylococcus aureus strains, including methicillin resistant and methicillin sensitive strains. Time kill assays were performed according to CLSI methodology (CLSI document M07-A9 column 32 No. 2) on 42 methicillin resistant S. aureus (MRSA) strains and 20 methicillin sensitive S. aureus (MSSA) strains. Cultures of each strain (5.5×10^5-1×10^6 starting inoculum) were treated with PlySs2 lysin and with antibiotics daptomycin, oxacillin or vancomycin for comparison for 6 hours with aeration. MRSA and MSSA strains were treated with PlySs2, daptomycin and vancomycin. MSSA strains were also treated with oxacillin. 1×MIC concentrations of the different antibiotics were utilized, based on published and established antibiotic MIC values. PlySs2 lysin treatment was at approximately 1×MIC as previously determined (see TABLE 2 above). Culture aliquots were removed hourly up to 6 hours (time points taken at 15 and 30 min, 1 hr, 2 hr, 3 hr, 4 hr, 5 hr, and 6 hr) and added to a PBS/charcoal solution (to inactivate each drug), which was then serially diluted and plated for bacterial viability. The resulting log CFU/mL was plotted for each culture. Growth controls were included for each strain and represent bacterial growth in the absence of any antibacterial agent. Exemplary log kill curves for selected MRSA strains are depicted in FIG. 1. Exemplary log kill curves for selected MSSA strains are depicted in FIG. 2.
Rapid-kill kinetics are desirable in the clinical setting to treat patients with fulminant bacterial infections.

[4] = test system: Streptococcus pyogenes, Group A; assay: MIC, broth microdilution (CLSI M07-A9); conditions: Group A (54)
Enterococcus faecalis = assay: MIC, broth microdilution (CLSI M07-A9); conditions: Enterococcus faecalis (17)
Listeria monocytogenes = assay: MIC, broth microdilution (CLSI M07-A9); conditions: Listeria monocytogenes (12)
Acinetobacter baumannii = assay: MIC, broth microdilution (CLSI M07-A9); conditions: Acinetobacter baumannii (8)
DRSA = assay: MIC, broth microdilution (CLSI M07-A9)
Lactobacillus spp. = assay: MIC, human gut bacteria; assay type: cell-based; conditions: N 6
Streptococcus mutans = assay: MIC, broth microdilution (CLSI M07-A9); conditions: Streptococcus mutans (12)
Klebsiella spp. = assay: MIC, human gut bacteria; assay type: cell-based; conditions: N 8
MRSA strain MW2 = assay: Murine bacteremia, low challenge model; assay type: in vivo, BALB/c mice; conditions: single dose at 4 hours; 1.25 mg/kg PlySs2, 2 mg/kg daptomycin
MRSA strain 269 (MW2) = assay: Combination MIC in 15% surfactant (Survanta); assay type: cell-based, Staphylococcus aureus
VISA = assay: MIC, broth microdilution (CLSI M07-A9); design: MIC 50% / MIC 90% / MIC Range: unit not given beside the values
[5] = FIG. 27B, daptomycin 50 mg/kg once daily
[6] = FIG. 27E, vancomycin 110 mg/kg twice daily
[7] = Staphylcoccus aureus Methicillin resistant (120)
[8] = Vancomycin-intermediate (31) Staphylococcus aureus

B1: PlySs2: bacteriophage lysin derived from Streptococcus suis, amino acid sequence of FIG. 29 (SEQ ID NO: 1) (protein, listed as Streptococcus suis)
chain: MTTVNEALNNVRAQVGSGVSVGNGECYALASWYERMISPDATVGLGAGVGWVSGAIGDTISAKNIGSSYNWQANGWTVSTSGPFKAGQIVTLGATPGNPYGHVVIVEAVDGDRLTILEQNYGGKRYPVRNYYSAASYRQQVVHYITPPGTVAQSAPNLAGSRSYRETGTMTVTVDALNVRRAPNTSGEIVAVYKRGESFDYDTVIIDVNGYVWVSYIGGSGKRNYVATGATKDGKRFGNAWGTFK
MIC 50% (Escherichia coli; Escherichia coli (6)): >512 µg/mL
MIC 90% (Escherichia coli; Escherichia coli (6)): >512 µg/mL
MIC Range (Escherichia coli; Escherichia coli (6)): >512 µg/mL
CF-301 MIC (Escherichia coli; Escherichia coli, N 10, human gut bacteria): >512 µg/mL
CF-301 MIC (Lactococcus spp.): >512 µg/mL
24 hour survival rate [1, 5]: 56%
72 hour survival rate [1, 5]: 18%
24 hour survival rate [1, 6]: 60%
72 hour survival rate [1, 6]: 3%
MIC 50% (Streptococcus pneumoniae): 16 µg/mL
MIC 90% (Streptococcus pneumoniae): 64 µg/mL
MIC Range (Streptococcus pneumoniae): 1 to 64 µg/mL
MIC90 (MRSA; MRSA (n = 45)): 0.15 µM
MIC 50% (MRSA; [7]): 4 µg/mL
MIC 90% (MRSA; [7]): 8 µg/mL
MIC Range (MRSA; [7]): 1 to 16 µg/mL
MIC (MRSA; strain MW2, without DTT): 32 µg/mL
Fold reduction (MRSA S. aureus strains; MRSA strain 223): 4 fold
Fold reduction (MRSA S. aureus strains; MRSA strain 241): 2 fold
Fold reduction (MRSA S. aureus strains; MRSA strain 263): 4 fold
Fold reduction (MRSA S. aureus strains; MRSA strain 269 (MW2)): 4 fold
Fold reduction (MRSA S. aureus strains; MRSA strain 270): 4 fold
Fold reduction (MRSA S. aureus strains; MRSA strain 553): 2 fold
Fold reduction (MRSA S. aureus strains; MRSA strain 650): 2 fold
Fold reduction (MRSA S. aureus strains; MRSA strain 827): 2 fold
Fold reduction (MRSA S. aureus strains; MRSA strain 828): 4 fold
Fold reduction (MRSA S. aureus strains; MRSA strain 829): 2 fold
Fold reduction (MRSA S. aureus strains; MRSA strain 830): 2 fold
Fold reduction (MRSA S. aureus strains; MRSA strain 833): 4 fold
fold reduction in the effective MIC in PlySs2/daptomycin combination (MRSA S. aureus strains; across 12 MRSA strains): 2-4 fold
MIC 50% [2]: 8 µg/mL
MIC 90% [2]: 8 µg/mL
MIC Range [2]: 8 µg/mL
MIC 50% (Pseudomonas aeruginosa; Pseudomonas aeruginosa (5)): >512 µg/mL
MIC 90% (Pseudomonas aeruginosa; Pseudomonas aeruginosa (5)): >512 µg/mL
MIC Range (Pseudomonas aeruginosa; Pseudomonas aeruginosa (5)): >512 µg/mL
CF-301 MIC (Pseudomonas aeruginosa; Pseudomonas aeruginosa, N 11, human gut bacteria): >512 µg/mL
effect alone at sub-MIC doses up to 6 hours (MRSA strains): ineffective or poorly effective
time to reach bactericidal levels (≧3-log10 reduction in CFUs) ([3]; 1×MIC): ≤ 30 minutes
comparative kill ([3]; 1×MIC, up to 6 hours): greater and faster than any antibiotic
maximal kill (log reduction) ([3]; all MRSA and MSSA strains tested, generally within the first hour of incubation): ≥ 3 log
MIC 50% [4]: 2 µg/mL
MIC 90% [4]: 8 µg/mL
MIC Range [4]: 0.5 to 8 µg/mL
MIC 50% (Enterococcus faecalis): >512 µg/mL
MIC 90% (Enterococcus faecalis): >512 µg/mL
MIC 50% (Listeria monocytogenes): 128 µg/mL
MIC 90% (Listeria monocytogenes): 512 µg/mL
MIC Range (Listeria monocytogenes): 1 to 512 µg/mL
MIC 50% (Acinetobacter baumannii): >512 µg/mL
MIC 90% (Acinetobacter baumannii): >512 µg/mL
MIC Range (Acinetobacter baumannii): >512 µg/mL
MIC90 (DRSA; DRSA (n = 8)): 0.15 µM
MIC Range (DRSA; Daptomycin-resistant (8) Staphylococcus aureus): 2000 to 4000 µg/mL
CF-301 MIC (Lactobacillus spp.): >512 µg/mL
MIC 50% (Streptococcus mutans): 64 µg/mL
MIC 90% (Streptococcus mutans): 256 µg/mL
MIC Range (Streptococcus mutans): 2 to 256 µg/mL
CF-301 MIC (Klebsiella spp.): >512 µg/mL
survival at 72 hours (MRSA strain MW2): 13%
effective combination concentration as fraction of the MIC (MRSA strain 269 (MW2)): ⅛
effective concentration in PlySs2 plus daptomycin combination MIC (MRSA strain 269 (MW2); 24 hours): 2 µg/mL
MIC90 (VISA; VISA (n = 10)): 1.2 µM
MIC 50% (VISA; [8]): 8
MIC 90% (VISA; [8]): 32
MIC Range (VISA; [8]): 1-64
